From US20160368985A1 (published 2016)

Target: 7D8.RbIgG
Experiment: SPR (Biacore)

- Kd: 1.89 nM
B1: CyFcRH5 (receptor)
chain: QFVRTYKSHFLQPPWTTVFRGERVNLTCKGFGFYSSQKTKWYYRHLGKEISRETQKNTLEVQESGEYRCQAQGSPLSSPVSLDFSSASLILQAPLSVFEGDSVVLRCRAKAEVTLKTTIYKNENVLAFLNKSTDFHISHASLKDNGAYRCTGYKETCCLVSSNTVKIQVQESFTRPVLRVSSFQPISGSPVTLTCETQLSLERSDVPLQFCFFRNDQMLGSGCSLSPKFRITAMWSKDSGSYWCKAATMCYDTTSNSLRSWIQVLIPASHPVLTLSPEKALNFEGTKVKLHCETQEDSLRTLYKFYHDGVPLRYKSVRCEKGASISFSLTTEHSGNYYCTADNGHGAKPSEAVSLSVTVPVSRPVLTLSSAEDLISEGAKLTLHCEAQRGSLPIVYQFHHENASLGNRSAHSAGGVAISFSLTADHSGNYYCTANNGFGPQRSEAVSLSITVPVSRPVLTLSSAEALTFEGATVTLYCEVQRGSPRILYQFYHEDVPLGSNSTPSVGKVSFSFSLTAAHSGNYYCTADNGFGPQRSEAVSLFVTVPVSRPILTLRVPRAQAVVGDLLELRCEALRGSPPIMYWFYHEDVTLGSSSVPSGGEASFNLSLTAEHSGNYSCEANNGLVAQHSDTISLSVIVPVSRPILTFRAPRAQAVVGDLLELHCEALRGSSPILYWFYHEDVTLGKISAPSGGGAYFNLSLTTEHSGIYSCEADNGLEAQRSEMVTLKVAVPVSRPVLTLRAPRAQVAVGDLLELHCEALRGSPLILYQFYHEDVTLGNSSALSGGAFFNLSLTAEHGNYSCEADNGLGAQRSETVTLYLTGLTENRSGPVATG
